Consider 1 molecule from publication PMC3617137 (2013).

This experiment has as its target T1, microtubules (alpha/beta-tubulin) (Sus scrofa, UniProt P02550).
T1 chain 1: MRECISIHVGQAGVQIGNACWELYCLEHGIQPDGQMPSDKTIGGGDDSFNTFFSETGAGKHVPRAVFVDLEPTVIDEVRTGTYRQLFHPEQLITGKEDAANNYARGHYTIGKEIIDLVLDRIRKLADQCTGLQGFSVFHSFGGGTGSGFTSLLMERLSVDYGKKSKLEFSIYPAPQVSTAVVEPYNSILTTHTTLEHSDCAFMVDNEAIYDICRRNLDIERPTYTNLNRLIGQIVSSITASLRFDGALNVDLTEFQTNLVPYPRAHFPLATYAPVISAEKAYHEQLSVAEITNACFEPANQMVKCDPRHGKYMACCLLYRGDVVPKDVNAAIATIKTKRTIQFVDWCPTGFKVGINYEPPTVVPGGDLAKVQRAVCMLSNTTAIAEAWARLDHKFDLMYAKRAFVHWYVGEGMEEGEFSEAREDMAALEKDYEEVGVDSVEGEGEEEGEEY
T1 chain 2: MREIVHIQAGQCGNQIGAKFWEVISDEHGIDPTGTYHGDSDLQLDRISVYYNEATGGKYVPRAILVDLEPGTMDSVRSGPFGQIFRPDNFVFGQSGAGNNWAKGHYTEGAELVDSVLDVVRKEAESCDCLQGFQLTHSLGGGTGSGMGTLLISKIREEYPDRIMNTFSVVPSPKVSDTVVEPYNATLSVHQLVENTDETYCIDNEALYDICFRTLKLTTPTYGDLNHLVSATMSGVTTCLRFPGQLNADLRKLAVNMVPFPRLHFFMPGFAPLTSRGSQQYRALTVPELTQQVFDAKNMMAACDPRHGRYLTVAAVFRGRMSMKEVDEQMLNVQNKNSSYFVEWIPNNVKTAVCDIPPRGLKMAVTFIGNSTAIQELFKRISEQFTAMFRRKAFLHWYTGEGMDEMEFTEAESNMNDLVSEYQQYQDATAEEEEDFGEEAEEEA
In words: microtubule co-sedimentation.

B1: Mars (MBP-N-Mars) 1-430 (protein)
chain: MQRHKELYKEQSLVLSPRNHCQENRDRLQAARAKKREDCFYQNRIISVSPTPVKIKQLAAAQAALTQENVAPKLESPERLDTKPAELLKESNPKVSRQKLYLQRYMEWKIAKTKEHKQQDQKRRGAAINVPTVKQSKALPKSQTFRVPDNLASAKQKEAAPMFQPPKRCSLYMIANPTGKGKAAEPIKPSIPKPTSAAAPPSSNTVAASSALARHKSAASATKIVPAIRQNNNPVALARQKAAARPIPNTTKQTTSVRQPGIEAKKITTTIPRPTPATVTKAKTPGIRQQPPVVSTKPRLPEPPAPRTARLPNVLSKPFEKPLGNKAPVTRRANVVKPQPIRGGGGAAAKFKDTAGATSKAASHSIRMKATKIKSQYTRLQDNVRKLPQLKAELLHAATLDIPPLTPLDDIHNPFIDQATSTQCKSNNSS
modifications: MBP fusion, taxol-stabilized GMPPNP/GDP-NP microtubules
For the molecule B1, the equilibrium dissociation constant (Kd) (as a rule, the constant that tells how readily two partners part at equilibrium) worked out at 250 nM.
